Test results: patent EP3988566A1

Tests used:
[1] = biological target: amyloid beta 1-42 fibers (UniProt P05067); assay: cell-based or functional assay
[2] = biological target: amyloid beta 1-42 monomers (UniProt P05067); assay: cell-based or functional assay
Sequence of amyloid beta 1-42 monomers (P05067 672-713 limits assumed): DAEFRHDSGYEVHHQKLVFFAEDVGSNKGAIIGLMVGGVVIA

Sequence of amyloid beta 1-42 fibers (P05067 672-713 limits assumed): as above

Substance: humanized anti-human amyloid beta monoclonal antibody hC2
- disaggregation of pre-aggregated Aβ1-42, thioflavin T assay, antibody to Aβ1-42 molar ratio 1:10 [1]: 31.9%
- disaggregation of pre-aggregated Aβ1-42, thioflavin T assay, antibody to Aβ1-42 molar ratio 1:100 [1]: 23.9%
- inhibition of Aβ1-42 aggregation, thioflavin T assay, antibody to Aβ1-42 molar ratio 1:10 [2]: 80.4%
- inhibition of Aβ1-42 aggregation, thioflavin T assay, antibody to Aβ1-42 molar ratio 1:100 [2]: 30%
